The term IC50 denotes the concentration that inhibits the measured activity by half.

In experiment [1] the target is T1, human GFRα3 expressed with a C-terminal myc-myc-hexahistidine tag (human, UniProt O60609 32-374, biotinylated (sites not given) in ELISA format 2 and in the Octet cross-competition; not in SPR).
T1 construct: also called hGFRα3-mmh; hGFRα3-mmH
Description: Octet RED384; 25 µg/mL first antibody on streptavidin-captured biotin-hGFRα3-mmH. The procedure: (§1) A cross-competition assay was conducted to assess the ability of select antibodies to compete with one another for binding to human GFRα3 using an Octet RED384 biosensor (Fortebio Inc.). The entire experiment was performed at 25° C. with the flow rate of 1000 rpm in Octet HBST buffer (0.01 M HEPES pH7.4, 0.15M NaCl, 3 mM EDTA, 0.05% v/v Surfactant P20, 0.1 mg/mL BSA). To assess whether 2 antibodies were able to compete with one another for binding to their respective epitopes on biotinylated recombinant human GFRα3 expressed with a C-terminal myc-myc-hexahistidine tag (biotin-hGFRα3-mmH; SEQ ID:370), around ˜1.2 nm of biotin-hGFRα3-mmH was first captured onto streptavidin-coated Octet sensor tips (Fortebio Inc, #18-5019) by submerging the tips for 1 minute into a 10 μg/mL solution of biotin-hGFRα3-mmH. The antigen coated sensor tips were then placed into wells containing 25 μg/mL solution of a first anti-GFRα3 monoclonal antibody for 4 minutes to saturate the biotin-hGFRα3-mmH surface. The sensor tips were then subsequently dipped into wells containing 25 μ/mL solution of a second anti-GFRα3 monoclonal antibody. The sensor tips were washed in Octet HBST buffer in between every step of the experiment. The real-time binding response was monitored during the course of the experiment and the binding response at the end of every step was recorded as shown in FIG. 9. The response of mAb-2 binding to biotin-hGFRα3-mmH pre-complexed with the first antibody was compared and competitive/non-competitive behavior of different anti-GFRα3 monoclonal antibodies was determined.

The target of experiment [2] is T1, human GFRα3 expressed with a C-terminal …. Description: Octet cross-competition; biotin-hGFRα3-mmH pre-saturated with first antibody H4H2295S. On the procedure:
as §1

Experiment [3] addresses T2, human GFRα3 on HEK293/hGFRα3/hRET/SRE-luc cells (human, UniProt O60609 32-382).
T2 sequence: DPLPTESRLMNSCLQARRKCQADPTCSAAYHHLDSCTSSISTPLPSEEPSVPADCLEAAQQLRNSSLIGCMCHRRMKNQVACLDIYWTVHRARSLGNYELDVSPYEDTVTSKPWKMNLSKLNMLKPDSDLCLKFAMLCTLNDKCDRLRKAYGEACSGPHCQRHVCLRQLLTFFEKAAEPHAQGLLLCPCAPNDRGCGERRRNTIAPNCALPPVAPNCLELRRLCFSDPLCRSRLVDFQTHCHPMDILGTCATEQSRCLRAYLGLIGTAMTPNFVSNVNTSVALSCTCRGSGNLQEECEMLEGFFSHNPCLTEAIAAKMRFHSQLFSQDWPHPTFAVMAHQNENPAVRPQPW
Description: cell-based or functional assay.

In experiment [4] the target is T1, human GFRα3 expressed with a C-terminal …. Description: Octet cross-competition; biotin-hGFRα3-mmH pre-saturated with first antibody H4H2212N. The procedure:
as §1
(In BLI a coated tip is dipped into the sample, and binding shifts an interference pattern.)

Experiment [5] shares this target. Description: Octet cross-competition; biotin-hGFRα3-mmH pre-saturated with first antibody H4H2291S. The procedure:
as §1

For experiment [6] the target is unchanged. Description: blocking ELISA 2, biotin-hGFRα3-mmH to coated hARTEMIN-mmH + hRET-10His. The procedure:
The equilibrated sample solutions were then transferred to the hARTEMIN-mmH-coated plate. […] Absorbance was recorded at 450 nm on a Victor X5 plate reader (Perkin Elmer) to determine the amount of free hGFRα3-hFc in the pre-equilibrated hGFRα3-hFc-antibody solutions that was able to bind to the plate coated with hARTEMIN-mmH. IC₅₀ values, defined as the concentration of antibody required to reduce the signal from a constant concentration of hGFRα3-hFc by 50%, were calculated from the data using Prism software from GraphPad. The absorbance measured at the constant amount of 120 pM hGFRα3-hFc in the absence of anti-GFRα3 antibody is defined as 0% blocking and the absorbance with no added hGFRα3-hFc is defined as 100% blocking. The observed absorbance in the wells containing the highest antibody concentration was used to calculate the maximum blocking percent shown in the table.
In the second ELISA format, the plates, samples and data were processed similarly as for the first format except both hARTEMIN-mmH and human RET with a C-terminal 10 histidine tag (hRET-10His; R&D Systems, #1168-CR/CF) were coated for the blocking ELISA experiment. The 96-well microtiter plates were coated with a mixture of 1.2 ug/ml hARTEMIN-mmH and 6.9 ug/ml hRET-10His proteins in PBS overnight at 4° C. and then blocked with a solution of 0.5% (w/v) BSA. A constant amount of biotinylated human GFRα3 with a C-terminal myc-myc-hexahistidine tag (biotin-hGFRα3-mmH; SEQ ID:370) at 1 nM was pre-mixed with varied amounts of anti-GFRα3 antibodies, ranging from 0 to ˜100 nM in serial dilutions, followed by a 1 hour incubation at RT to allow antibody-biotin-hGFRα3-mmH binding to reach equilibrium. The equilibrated samples were then transferred to the coated plate. After 1 hour of binding, the plate was washed, then the bound biotin-hGFRα3-mmH was detected using HRP conjugated streptavidin (Pierce, #N200), and colorimetric signals were developed using TMB HRP substrates.
(In an ELISA, binding on a coated surface is turned into a signal by an enzyme label.)

Experiment [7] shares this target. Description: Octet cross-competition; biotin-hGFRα3-mmH pre-saturated with first antibody H4H2352S. The procedure: as §1

B1: H4H2342P (antibody, human IgG4, V domains shown)
VH: EVQLLESGGGLVQPGGSLRLSCAASGFTFSTYAMSWVRQAPGKGLEWVSAIRGNGVNTYYGDSMKGRFTISRDNSKDTLYLQMNSLRAEDTAVYYCAKNKWELLVFEYWGQGTLVTVSS
VL: DIQMTQSPSSLSASVGDRVTITCRASQDISNYLAWYQQKPGKVPKLLIYAASTLQSGVPFRFSGSGSGTDFTLTISSLQPEDVATYYCQKYNSAPPFGPGTKVDIK
notes: human IgG4 Fc (H4H)
Take B1: the “Amount of Antibody 1 bound (nm)” value in experiment [1] turned out to be 2.69 nm. The “binding response of second antibody (nm)” value in experiment [2] is 0.01 nm; in experiment [4] it was 2.17 nm; in experiment [5], -0.01 nm; in experiment [7], 2.08 nm. The “IC50 (SRE-luc, HEK293/hGFRα3/hRET cells, 100 pM hARTEMIN-mmH)” value in experiment [3] amounted to 1 nM. In experiment [6], the “% max blocking” value stood at 97%. Moreover, the IC50 in experiment [6] came to 1.08 nM.

B2: H4H2212N (antibody, human IgG4, V domains shown)
VH: EVQLLESGGGLVQPGGSLRLSCAASGFTFSSYAMSWVRQGPGKGLEWVSGISGSGGSTYNADSVKGRFTISRDNSKNTLYLQMNSLRAEDTAVYYCAKDSGTYWYYFDYWGQGILVTVSS
VL: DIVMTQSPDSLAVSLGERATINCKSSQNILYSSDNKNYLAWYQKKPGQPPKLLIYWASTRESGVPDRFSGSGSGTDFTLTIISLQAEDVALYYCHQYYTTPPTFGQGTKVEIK
notes: human IgG4 Fc (H4H)
On to B2, for which the “Amount of Antibody 1 bound (nm)” value in experiment [1] was 2.32 nm. Besides, the “binding response of second antibody (nm)” value in experiment [2] turned out to be 1.81 nm; in experiment [4], 0.05 nm; in experiment [5] it was 1.96 nm; in experiment [7], 0.05 nm. The “IC50 (SRE-luc, HEK293/hGFRα3/hRET cells, 100 pM hARTEMIN-mmH)” value in experiment [3] was 0.8 nM. Moreover, the “% max blocking” value in experiment [6] came to 99%. In experiment [6], the IC50 stood at 0.403 nM.

B3: H4H2355S (antibody, human IgG4, V domains shown)
VH: EVQLVESGGGLVQPGGSLRLSCAASGFTFSSYAMSWVRQVPGKGLEWVSAISGSGDNTYNAESVKGRFTISRDNSKNMLYLQMNSLRAEDTAVYYCAKTKFSSSLLFDYWGQGTLVTVSS
VL: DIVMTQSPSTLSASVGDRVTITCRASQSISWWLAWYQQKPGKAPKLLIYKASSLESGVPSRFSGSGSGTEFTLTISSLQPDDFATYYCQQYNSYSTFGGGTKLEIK
notes: human IgG4 Fc (H4H)
Regarding B3, in experiment [1], the “Amount of Antibody 1 bound (nm)” value was 2.73 nm. The “binding response of second antibody (nm)” value stood at 0.02 nm in experiment [2], 2.05 nm in experiment [4], 0 nm in experiment [5] and 2.12 nm in experiment [7]. The “IC50 (SRE-luc, HEK293/hGFRα3/hRET cells, 100 pM hARTEMIN-mmH)” value in experiment [3] came to 2.3 nM.

B4: H4H2291S (antibody, human IgG4, V domains shown)
VH: EVQLVESGGGLVQPGESLRLSCAASGFTFSNYAMSWVRQAPGKGLEWVSVISGSGGSTYYADSVKGRFTMSRDNSKNTLYLQMNSLRAEDTAVYYCAKPPSRAARYFNYGMDVWGQGTTVTVSS
VL: AIRMTQSPSSVSASVGDRVTITCRASQGISSWLAWYQQKPGKAPKLLIYAASSLQSGVPSRFSGSGSGTDFTLTISSLQPEDFATYYCQQANSFPFTFGGGTKVEIK
notes: human IgG4 Fc (H4H)
As for B4, the “Amount of Antibody 1 bound (nm)” value in experiment [1] was determined as 2.89 nm. Moreover, the “binding response of second antibody (nm)” value stood at 0.2 nm in experiment [2], 2.69 nm in experiment [4], 0.05 nm in experiment [5] and 2.63 nm in experiment [7]. In addition, the “IC50 (SRE-luc, HEK293/hGFRα3/hRET cells, 100 pM hARTEMIN-mmH)” value in experiment [3] worked out at 1.3 nM.

B5: H4H2295S (antibody, human IgG4, V domains shown)
VH: EVQLVESGGGLVQAGGSLRLSCVASGFTFSSYAMSWVRQAPGKGLEWVSAISGSGGSTYSADSVKGRFTISRDNSKNTLYLQMNSLRAEDTAVYYCTKPSSYSSSNFYYGMDVWGQGTTVTVSS
VL: DIQMTQSPSSVSASVGDRVTITCRASQGISSWLAWYQQKPGKAPKLLIYTASSLQSGVPSRFSGSGSRTDFTLTISSLQPEDFATYYCQQTNSLPLTFGPGTKVEIK
notes: human IgG4 Fc (H4H)
On to B5, for which the “Amount of Antibody 1 bound (nm)” value in experiment [1] is 2.83 nm. For the same molecule, the “binding response of second antibody (nm)” value came out at 0.05 nm in experiment [2], 2.15 nm in experiment [4], 0 nm in experiment [5] and 2.31 nm in experiment [7]. Further, the “IC50 (SRE-luc, HEK293/hGFRα3/hRET cells, 100 pM hARTEMIN-mmH)” value in experiment [3] amounted to 1.5 nM.

B6: H4H2296S (antibody, human IgG4, V domains shown)
VH: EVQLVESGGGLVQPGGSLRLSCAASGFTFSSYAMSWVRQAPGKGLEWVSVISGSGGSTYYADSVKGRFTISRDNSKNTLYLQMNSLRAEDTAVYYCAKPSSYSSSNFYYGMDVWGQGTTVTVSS
VL: DIVMTQSPSSVSASVGDRVTITCRASQGISSWLAWYQQKPGKAPKLLIYAASSLRSGVPSRFSGSGSGTDFTLTITSLQPEDFATYYCQHTNSFPFTFGPGTKVEIK
notes: human IgG4 Fc (H4H)
Turning to B6, the “Amount of Antibody 1 bound (nm)” value in experiment [1] amounted to 2.88 nm. Further, the “binding response of second antibody (nm)” value is 0.07 nm in experiment [2], 2.36 nm in experiment [4], -0.01 nm in experiment [5] and 2.35 nm in experiment [7]. Moreover, the “IC50 (SRE-luc, HEK293/hGFRα3/hRET cells, 100 pM hARTEMIN-mmH)” value in experiment [3] amounted to 1.4 nM.

B7: H4H2357S (antibody, human IgG4, V domains shown)
VH: EVQLVESGGGLVQPGGSLRLSCAASTFTFSSYAMTWVRQAPGKGLEWVSSISGSGDSTYYADSVKGRFTISRDNSKNTLFLQMNSLRAEDTAVYYCAKKDGPGRYYVRYGMDVWGQGTTVTVSS
VL: DIQMTQSPSSVSASVGDRVTITCRASQGISSWLAWYQQKPGKAPKLLIYTTSSLQSGVPSRFSGSGSGTDFTLTISSLQPEDFATYYCQQANSFPLTFGGGTKVDIK
notes: human IgG4 Fc (H4H)
For B7, the “Amount of Antibody 1 bound (nm)” value in experiment [1] amounted to 2.82 nm. Besides, the “binding response of second antibody (nm)” value in experiment [2] turned out to be 0.05 nm; in experiment [4], 2.38 nm; in experiment [5], 0 nm; in experiment [7], 2.45 nm. Further, the “IC50 (SRE-luc, HEK293/hGFRα3/hRET cells, 100 pM hARTEMIN-mmH)” value in experiment [3] amounted to 4.9 nM. Also, the “% max blocking” value in experiment [6] stood at 86%. Moreover, in experiment [6], the IC50 turned out to be 3.28 nM.

The values are drawn from patent US20140056903A1 (Regeneron, published 2014).
